According to patent publication US20230034906A1 (TRINOMAB BIOTECH, published 2023):

Experiments:
Experiment in all cases: indirect ELISA, antibody titrated on gB glycoprotein mutant
[1] = target: T1, gB_Towne protein with N452 mutated into glutamine (human cytomegalovirus, strain Towne, UniProt F5HB53 25-700)
T1 chain: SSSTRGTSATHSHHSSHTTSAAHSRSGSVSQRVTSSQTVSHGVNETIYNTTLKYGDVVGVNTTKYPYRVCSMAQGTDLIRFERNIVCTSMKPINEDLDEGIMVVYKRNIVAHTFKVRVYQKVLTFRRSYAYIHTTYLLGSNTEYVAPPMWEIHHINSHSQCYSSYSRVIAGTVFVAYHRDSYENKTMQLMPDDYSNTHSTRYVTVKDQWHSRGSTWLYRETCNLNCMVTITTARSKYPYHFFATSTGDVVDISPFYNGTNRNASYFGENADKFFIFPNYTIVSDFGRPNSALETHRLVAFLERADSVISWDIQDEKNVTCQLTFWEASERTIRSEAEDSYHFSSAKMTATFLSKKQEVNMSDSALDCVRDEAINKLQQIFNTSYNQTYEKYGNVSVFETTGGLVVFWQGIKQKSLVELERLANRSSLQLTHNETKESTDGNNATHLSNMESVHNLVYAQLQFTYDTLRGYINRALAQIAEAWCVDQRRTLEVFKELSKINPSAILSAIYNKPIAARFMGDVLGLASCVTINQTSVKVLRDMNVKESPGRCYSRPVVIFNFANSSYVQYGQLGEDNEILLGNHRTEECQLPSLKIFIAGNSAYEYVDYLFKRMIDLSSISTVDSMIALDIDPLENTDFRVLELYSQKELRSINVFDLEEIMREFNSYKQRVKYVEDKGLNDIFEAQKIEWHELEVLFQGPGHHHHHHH

[2] = target: T2, gB_Towne protein with N417 mutated into glutamine (human cytomegalovirus, strain Towne, UniProt F5HB53 25-700)
T2 chain: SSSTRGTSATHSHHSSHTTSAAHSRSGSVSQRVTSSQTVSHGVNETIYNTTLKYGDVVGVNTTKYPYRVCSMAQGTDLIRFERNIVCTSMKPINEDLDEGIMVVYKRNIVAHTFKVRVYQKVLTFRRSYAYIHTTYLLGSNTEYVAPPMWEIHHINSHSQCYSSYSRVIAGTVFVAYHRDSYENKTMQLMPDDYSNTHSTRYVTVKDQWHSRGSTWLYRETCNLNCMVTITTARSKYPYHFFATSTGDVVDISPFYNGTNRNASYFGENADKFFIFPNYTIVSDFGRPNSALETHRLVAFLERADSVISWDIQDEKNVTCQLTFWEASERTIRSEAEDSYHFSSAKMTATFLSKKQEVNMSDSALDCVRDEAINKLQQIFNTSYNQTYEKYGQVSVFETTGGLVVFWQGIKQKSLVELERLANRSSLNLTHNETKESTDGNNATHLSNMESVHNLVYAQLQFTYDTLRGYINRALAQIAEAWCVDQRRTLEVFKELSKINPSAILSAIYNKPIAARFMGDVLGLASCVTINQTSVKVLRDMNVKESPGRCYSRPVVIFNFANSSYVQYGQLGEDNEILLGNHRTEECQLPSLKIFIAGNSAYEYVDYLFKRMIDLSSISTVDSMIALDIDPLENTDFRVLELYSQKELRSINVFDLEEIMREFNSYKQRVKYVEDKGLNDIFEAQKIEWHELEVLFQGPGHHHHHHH

[3] = target: T3, gB_Towne protein with N302 mutated into glutamine (human cytomegalovirus, strain Towne, UniProt F5HB53 25-700)
T3 chain: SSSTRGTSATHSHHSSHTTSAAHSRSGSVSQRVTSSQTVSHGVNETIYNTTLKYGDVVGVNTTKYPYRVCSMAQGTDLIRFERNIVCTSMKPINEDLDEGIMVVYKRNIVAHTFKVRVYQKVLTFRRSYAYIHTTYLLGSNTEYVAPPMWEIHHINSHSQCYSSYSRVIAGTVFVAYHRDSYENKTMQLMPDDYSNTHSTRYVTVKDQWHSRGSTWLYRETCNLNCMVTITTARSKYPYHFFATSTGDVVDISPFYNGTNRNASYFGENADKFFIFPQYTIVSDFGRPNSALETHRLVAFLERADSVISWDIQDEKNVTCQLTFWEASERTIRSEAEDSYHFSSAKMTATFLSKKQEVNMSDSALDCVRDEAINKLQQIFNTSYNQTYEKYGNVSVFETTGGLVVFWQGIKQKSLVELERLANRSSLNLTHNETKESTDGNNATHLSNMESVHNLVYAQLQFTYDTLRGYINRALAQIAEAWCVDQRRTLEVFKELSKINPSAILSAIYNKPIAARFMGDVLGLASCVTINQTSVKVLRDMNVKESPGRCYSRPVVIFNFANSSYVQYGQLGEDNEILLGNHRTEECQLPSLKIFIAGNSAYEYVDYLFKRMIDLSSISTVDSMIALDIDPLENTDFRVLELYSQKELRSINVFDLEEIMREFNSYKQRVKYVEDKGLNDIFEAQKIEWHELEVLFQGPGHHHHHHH

[4] = target: T4, gB_Towne protein with N405 mutated into glutamine (human cytomegalovirus, strain Towne, UniProt F5HB53 25-700)
T4 chain: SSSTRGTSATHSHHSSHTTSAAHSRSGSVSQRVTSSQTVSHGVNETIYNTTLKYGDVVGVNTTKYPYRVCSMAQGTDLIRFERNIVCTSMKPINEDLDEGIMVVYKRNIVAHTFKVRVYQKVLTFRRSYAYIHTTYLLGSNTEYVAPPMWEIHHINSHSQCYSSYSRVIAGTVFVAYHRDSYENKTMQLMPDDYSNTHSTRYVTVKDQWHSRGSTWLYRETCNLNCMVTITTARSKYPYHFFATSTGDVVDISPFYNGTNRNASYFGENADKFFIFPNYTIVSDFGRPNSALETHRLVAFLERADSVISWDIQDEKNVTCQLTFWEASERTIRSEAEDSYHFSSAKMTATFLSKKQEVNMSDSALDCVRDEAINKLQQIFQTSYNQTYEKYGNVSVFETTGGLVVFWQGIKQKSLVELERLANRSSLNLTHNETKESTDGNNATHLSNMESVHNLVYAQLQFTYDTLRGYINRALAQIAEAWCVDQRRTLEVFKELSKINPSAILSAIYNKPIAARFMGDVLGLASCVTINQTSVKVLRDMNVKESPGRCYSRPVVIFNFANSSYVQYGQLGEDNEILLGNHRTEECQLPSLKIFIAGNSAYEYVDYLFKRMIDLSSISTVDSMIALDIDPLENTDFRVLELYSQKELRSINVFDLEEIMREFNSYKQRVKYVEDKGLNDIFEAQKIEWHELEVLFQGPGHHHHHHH

Measured: binding result

B1: TRN1019 (antibody, V domains shown)
VH: QVQLVQSGAEVKKPGESLKISCKGSGYTFTNYWIGWVRQMPGAGLEWMAIIFPRDSYSAYSPSFQGRVTISVDKSISTAYLHWSSLEASDTAVYYCAIYNDLRSGNSWGQGTPLIVSS
VL: DIQMTQSPSSLSASVGDRVTITCRASQSITKYLNWYQQKPGRAPKLLIHTTSTLQSGVPSRFSGSGSGTDFTLTISSLQLEDFGTYYCQQSFSTLWTFGQGTKLDIKR
notes: Fully human antibody; kappa light chain
binds: all assays above
